In paper PMC5429695:

target: RfDoc1a, group 1a dockerin, thioredoxin A fusion, wild type (R. flavefaciens FD-1); assay: ITC; 308 K; dockerin in the cell (stirred at 307 revolutions/min) titrated with 28 injections of 10 uL cohesin at 220 s intervals; proteins in 50 mM HEPES pH 7.5, 0.5 mM CaCl2, 0.5 mM TCEP; single-site model

Ka [M⁻¹] | dH [kcal/mol] | stoichiometry N | Substance
5.03e+08 | -38.9 | 1 | RfCohScaA, ScaA cohesin with C-terminal hexa-histidine tag (domain or fragment)
1.65e+06 | -66.9 | 1 | RfCohScaB3 E84A + H121A, C-terminal hexa-histidine tag (domain or fragment)
1.53e+07 | -55 | 1 | RfCohScaB3 E84A + N124A, C-terminal hexa-histidine tag (domain or fragment)
3.62e+07 | -55.5 | 1 | RfCohScaB3 E84A, C-terminal hexa-histidine tag (domain or fragment)
2.28e+06 | -46.4 | 1 | RfCohScaB3 H121A + N124A, C-terminal hexa-histidine tag (domain or fragment)
2.66e+07 | -52.6 | 1 | RfCohScaB3 H121A, C-terminal hexa-histidine tag (domain or fragment)
4.23e+08 | -57.4 | 1 | RfCohScaB3 K77A, C-terminal hexa-histidine tag (domain or fragment)
7.59e+06 | -51.9 | 1 | RfCohScaB3 L79A, C-terminal hexa-histidine tag (domain or fragment)
1.1e+08 | -58.6 | 1 | RfCohScaB3 N68A, C-terminal hexa-histidine tag (domain or fragment)
2.08e+07 | -51.8 | 1 | RfCohScaB3 N75A + E84A, C-terminal hexa-histidine tag (domain or fragment)
2.49e+06 | -50.8 | 1 | RfCohScaB3 N75A + H121A, C-terminal hexa-histidine tag (domain or fragment)
1.86e+06 | -56.3 | 1 | RfCohScaB3 N75A + N124A, C-terminal hexa-histidine tag (domain or fragment)
9.09e+07 | -52.7 | 1 | RfCohScaB3 N75A, C-terminal hexa-histidine tag (domain or fragment)
5.54e+07 | -52.8 | 1 | RfCohScaB3 N124A, C-terminal hexa-histidine tag (domain or fragment)

target: RfDoc1b, group 1b dockerin, thioredoxin A fusion, wild type (R. flavefaciens FD-1); assay: as above

Ka [M⁻¹] | dH [kcal/mol] | stoichiometry N | Substance
2.67e+07 | -61.2 | 1 | RfCohScaA, ScaA cohesin with C-terminal hexa-histidine tag (domain or fragment)
